Assay results as given in article PMC11385703 (Structure(London, England:1993), 2024).
Where a chain is given by its changes, count along the chain named.

Legend:
Details in all cases: both partners purified
[1] = molecular target: biotinylated myotoxin II (Bothrops asper, UniProt P24605, biotin (EZ-Link NHS-PEG4-Biotin, 1:1.25 toxin:reagent molar ratio)); assay: BLI
[2] = molecular target: T1, myotoxin II (Bothrops asper, UniProt P24605); assay: […] (1:20) in PBS pH 7.4 and pH 6, 1 h at room temperature
T1 construct: source: purified from the venom of B. asper (CM-Sephadex C25, RP-HPLC)

[3] = molecular target: T2, α-cobratoxin, biotinylated (Naja kaouthia, UniProt P01391, biotin (EZ-Link NHS-PEG4-Biotin, 1:1.25 toxin:biotinylation reagent molar ratio)); assay: BLI; […]) biosensors; […]; dissociation for 600 s in HEPES-MES pH 4.5; 25°C; 1:1 binding model, […]
[4] = molecular target: T2, α-cobratoxin, biotinylated; assay: BLI; […]) biosensors; […]; association in HEPES-MES pH 7.4 for 300 s, dissociation in HEPES-MES pH 5.5 for 600 s; 1:1 binding model, […]
[5] = molecular target: T2, α-cobratoxin, biotinylated; assay: BLI; […]) biosensors; […]; dissociation for 600 s in HEPES-MES pH 6.0; 25°C; 1:1 binding model, […]
[6] = molecular target: T2, α-cobratoxin, biotinylated; assay: BLI; […]) biosensors; […]; dissociation for 600 s in HEPES-MES pH 3.5; 25°C; 1:1 binding model, […]
[7] = molecular target: T2, α-cobratoxin, biotinylated; assay: BLI; […]) biosensors; […]; dissociation for 600 s in HEPES-MES pH 7.4; 25°C; 1:1 binding model, […]
[8] = molecular target: T2, α-cobratoxin, biotinylated; assay: BLI; […]) biosensors; […]; dissociation for 600 s in HEPES-MES pH 5.0; 25°C; 1:1 binding model, […]
[9] = molecular target: T2, α-cobratoxin, biotinylated; assay: BLI; […]) biosensors; […]; dissociation for 600 s in HEPES-MES pH 6.5; 25°C; 1:1 binding model, […]
[10] = molecular target: T2, α-cobratoxin, biotinylated; assay: BLI; […]) biosensors; […]; dissociation for 600 s in HEPES-MES pH 4.0; 25°C; 1:1 binding model, […]
[11] = molecular target: T2, α-cobratoxin, biotinylated; assay: BLI; […]) biosensors; […]; dissociation for 600 s in HEPES-MES pH 5.5; 25°C; 1:1 binding model, […]
[12] = molecular target: T2, α-cobratoxin, biotinylated; assay: BLI; […]) biosensors; […]; association in HEPES-MES pH 7.4 for 300 s, dissociation in HEPES-MES pH 7.4 for 600 s; 1:1 binding model, […]
[13] = molecular target: T3, α-cobratoxin (Naja kaouthia, UniProt P01391); assay: SPR; […] (Biacore 8K, 25°C); […]; dissociation 300 s in running buffer of pH 7.4 or 5.5
T3 construct: source: bought: Latoxan

[14] = molecular target: T4, biotinylated α-cobratoxin (Naja kaouthia, UniProt P01391); assay: BLI
T4 construct: source: bought: Latoxan, then biotinylated
T4 sequence (P01391 whole entry): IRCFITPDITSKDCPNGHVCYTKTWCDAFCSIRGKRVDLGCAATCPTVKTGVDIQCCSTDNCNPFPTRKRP

T2 sequence (P01391 whole entry): as above
biotinylated myotoxin II, sequence (P24605 17-137): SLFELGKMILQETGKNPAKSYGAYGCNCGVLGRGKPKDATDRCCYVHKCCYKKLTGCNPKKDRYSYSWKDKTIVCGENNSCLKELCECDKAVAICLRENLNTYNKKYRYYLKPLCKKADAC
T1 sequence (P24605 17-137): as above

B1: IgG: TPL0039_05_E02-YTE (antibody, V domains shown)
VH: QVQLLESGGGLVQPGRSLRLSCAASGFTFSSYGLHWVRQAPGKGLEWVAVISYDGSNKYYADSVKGRFTISRDNSKNTLYLQMNSLRAEDTAVYYCASTLQQLDAFDIWGQGTLVTVSS
VL: NFMLTQPHSVSESPGKTVTISCTRSSGSIASNYVQWYQQRPGTSPTIMIYEDNQRPSGVPDRFSGAIDSSSNSASLTISGLKTEDEADYYCQSYDSSSVVFGGGTKVTVL
notes: copies: 2 + 2
- Kd [1]: < 0.001 nM
- koff [1]: < 1e-07 s⁻¹

B2: IgG: TPL0039_05_B04-YTE (antibody, V domains shown)
VH: EVQLLESGGGVVQPGRSLRLSCAASGFTFSSYGMHWVRQAPGKGLEWVAVISYDGSNKYYADSVKGRFTISRDNSKNTLYLQMNSLRAEDTAVYYCARVGENEAFDIWGQGTMVTVSS
VL: B1 VL with S31R, T43S, S44A, I47T, M48V, A66S, S98T, V107L
notes: also called IgG1 B04-YTE; source: CHO cells, transiently expressed, purified; copies: 2 + 2
- stoichiometry N [2]: 2 antigen per IgG1

B3: IgG: TPL0039_05_B12-YTE (antibody, V domains shown)
VH: B2 VH with L5V, R98G, V99W, G100T, N102G, E103D, M113L
VL: B1 VL with T43S, S44A, T46S, I47T, M48V, Q54R, A66S, S70A, V107I
notes: copies: 2 + 2
- Kd [1]: < 0.001 nM

B4: TPL0197_01_C08 Fab (Fab, V domains shown)
VH: EVQLVQSGAEVKKPGASVKVSCKASGYTFTSYGISWVRQAPGQGLEWMGWISAYNGNTNYAQKLQGRVTMTTDTSTSTAYMELRSLRSDDTAVYYCAREEYCSSTSCYVGNYYGMDVWGQGTLVTVSS
VL: DIQMTQSPSSLSASVGDRVTITCQASQDISNYLNWYQQKPGKAPKLLIYAASSLESGVPSRFSGSGSGTEFTLTITNLQVDDFATYYCQRYDSNFAFGQGTKVEIK
- koff [3]: 0.054 s⁻¹
- koff [4]: 0.0058 s⁻¹
- kon [4]: 3800 M⁻¹ s⁻¹
- koff [5]: 0.0015 s⁻¹
- koff [6]: 1.2 s⁻¹
- koff [7]: 0.00069 s⁻¹
- koff [8]: 0.0073 s⁻¹
- koff [9]: 0.00077 s⁻¹
- koff [10]: 0.28 s⁻¹
- koff [11]: 0.0041 s⁻¹
- Kd [12]: 64 nM
- koff [12]: 0.00085 s⁻¹
- kon [12]: 11000 M⁻¹ s⁻¹

B5: IgG: TPL0197_01_C08-YTE (antibody, V domains shown)
VH: B4 VH
VL: B4 VL
notes: also called IgG1 C08; source: CHO cells, transiently expressed, purified; copies: 2 + 2
- binding result [13]: binds

B6: 2554_01_D11 Fab (Fab, V domains shown)
VH: QVQLVQSGAEVKKPGSSVKVSCKASGGTFSSYAISWVRQAPGQGLEWMGGIIPIFGTANYAQKFQGRVTITADESTSTAYMELRSLRSDDTAVYYCARDNLGYCSGGSCYSDYYYYYMDVWGQGTLVTVSS
VL: NFMLTQPRSVSESPGKTVTISCTRSSGSIGSDYVHWYQQRPGSSPTTVIYEDNQRPSGVPDRFSGSIDSSSNSASLTISGLKTEDEADYYCQSYDRSNHEVVFGGGTKLTVL
- koff [3]: 0.00065 s⁻¹
- Kd [4]: 8.7 nM
- koff [4]: 0.0004 s⁻¹
- kon [4]: 46000 M⁻¹ s⁻¹
- koff [5]: 0.0003 s⁻¹
- koff [6]: 0.0036 s⁻¹
- koff [7]: 0.00026 s⁻¹
- koff [8]: 0.00043 s⁻¹
- koff [9]: 0.00027 s⁻¹
- koff [10]: 0.001 s⁻¹
- koff [11]: 0.00039 s⁻¹

B7: Fab: 2554_01_D11 (Fab, V domains shown)
VH: B6 VH
VL: B6 VL
notes: also called Fab D11; source: purified
- binding result [14]: binds

B8: IgG: 2555_01_A01-YTE (antibody, V domains shown)
VH: B6 VH
VL: SYELTQPPSVSVAPGRTATITCEGDNIGQQIVHWYQQKPGQAPVAVISSDSDRPSGIPERFSGSNSGNTATLTISRVEAGDEADYYCQVWDSGSDHVVFGGGTKVTVL
notes: also called IgG1 A01; source: CHO cells, transiently expressed, purified; copies: 2 + 2
- binding result [13]: binds

B9: Fab: 2555_01_A01 (Fab, V domains shown)
VH: B6 VH
VL: B8 VL
notes: also called Fab A01; source: purified
- binding result [14]: binds
